Columns and labels:
[1] = DISC immunoprecipitation and immunoblot, reconstituted DKO cells; details: glycan lost; control: TRAIL-R1 WT
[2] = immunofluorescence of receptor clustering after TRAIL, U2OS; details: glycan lost; control: TRAIL-R1 WT
[3] = anti-TRAIL-R1 immunofluorescence after His-hTRAIL, reconstituted DKO cells; details: glycan lost; control: TRAIL-R1 WT
[4] = DISC immunoprecipitation and immunoblot, U2OS; details: glycan lost; control: TRAIL-R1 WT
[5] = molecular target: UL141-GPI (GPI-anchored ectodomain of HCMV UL141, FIX strain) (human cytomegalovirus (FIX strain)) (UniProt Q6RJQ3); assay: flow cytometry on cells
[6] = surface flow cytometry with MD5-1, B16; details: glycan lost; control: WT mTRAIL-R
[7] = receptor clustering upon ligand binding, B16 and U2OS; details: glycan lost; control: WT mTRAIL-R
receptor internalization = details: glycan lost; control: WT mTRAIL-R

Sequence of UniProt Q6RJQ3 (Q6RJQ3 37-278): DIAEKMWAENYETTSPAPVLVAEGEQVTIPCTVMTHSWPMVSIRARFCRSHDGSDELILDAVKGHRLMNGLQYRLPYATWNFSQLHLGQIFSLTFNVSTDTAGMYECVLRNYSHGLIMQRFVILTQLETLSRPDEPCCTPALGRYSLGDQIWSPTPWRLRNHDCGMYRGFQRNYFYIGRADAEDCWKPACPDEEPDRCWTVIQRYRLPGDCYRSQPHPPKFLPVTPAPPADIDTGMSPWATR

With TRAIL-R1: N156A the “other: DISC formation (caspase-8/-10 recruitment)” value [1] was “decreases”, the oligomerisation [2] was “decreases” and the oligomerisation [3] was “decreases”. For the same molecule, the “other: DISC formation (caspase-8/-10 recruitment)” value [4] was “decreases”.

“TRAIL-R1-Fc N156A (N-glycosylation-deficient human TRAIL-R1 fused to human Fc IgG1) (from UniProt O00220 24-239) (Fc fusion)” gave a fold higher binding affinity than glycosylated TRAIL-R1 [5] of 5 fold.

B1: mTRAIL-R (mouse TRAIL receptor): N99A (protein)
parent chain: MEPPGPSTPTASAAARADHYTPGLRPLPKRRLLYSFALLLAVLQAVFVPVTANPAHNRPAGLQRPEESPSRGPCLAGQYLSEGNCKPCREGIDYTSHSNHSLDSCILCTVCKEDKVVETRCNITTNTVCRCKPGTFEDKDSPEICQSCSNCTDGEEELTSCTPRENRKCVSKTAWASWHKLGLWIGLLVPVVLLIGALLVWKTGAWRQWLLCIKRGCERDPESANSVHSSLLDRQTSSTTNDSNHNTEPGKTQKTGKKLLVPVNGNDSADDLKFIFEYCSDIVPFDSWNRLMRQLGLTDNQIQMVKAETLVTREALYQMLLKWRHQTGRSASINHLLDALEAVEERDAMEKIEDYAVKSGRFTYQNAAAQPETGPGGSQCV
For B1, the expression_or_secretion [6] was “no change”.

B2: mTRAIL-R (mouse TRAIL receptor): N99/122A (protein)
parent chain: B1 parent chain
For B2, the oligomerisation [7] was “decreases”, the localisation_or_trafficking (receptor internalization) was “increases” and the expression_or_secretion [6] was “no change”.

B3: mTRAIL-R (mouse TRAIL receptor): N99/122/150A (protein)
parent chain: B1 parent chain
With B3 the oligomerisation [7] was “decreases” and the expression_or_secretion [6] was “decreases”.

B4: mTRAIL-R (mouse TRAIL receptor): N99/150A (protein)
parent chain: B1 parent chain
For B4, the expression_or_secretion [6] was “no change”.

B5: mTRAIL-R (mouse TRAIL receptor): N122/150A (protein)
parent chain: B1 parent chain
In the case of B5, the expression_or_secretion [6] is reported as “no change”.

— paper PMC5344210
